No end group written: not given here.
Target: T1, recombinant Clp1 (alone) (S. cerevisiae, UniProt Q08685 1-445)
T1 sequence (looked up): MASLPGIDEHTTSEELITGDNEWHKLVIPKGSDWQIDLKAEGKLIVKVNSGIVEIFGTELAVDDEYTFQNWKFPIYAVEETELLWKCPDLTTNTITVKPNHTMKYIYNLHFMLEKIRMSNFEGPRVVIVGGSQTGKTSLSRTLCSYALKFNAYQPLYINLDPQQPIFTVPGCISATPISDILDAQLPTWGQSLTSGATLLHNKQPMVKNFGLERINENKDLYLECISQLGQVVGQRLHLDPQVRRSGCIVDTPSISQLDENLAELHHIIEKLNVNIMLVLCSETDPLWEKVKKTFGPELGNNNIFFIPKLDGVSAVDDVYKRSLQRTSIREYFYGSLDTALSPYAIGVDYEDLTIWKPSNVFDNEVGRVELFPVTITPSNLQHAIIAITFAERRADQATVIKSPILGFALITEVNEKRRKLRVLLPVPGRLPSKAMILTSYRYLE
Test: pull-down

binding result: binds
B1: biotinylated flap loop peptide (Rpb2 amino acids 915–943) (peptide, UniProt P08518 915-943, looked up)
peptide: TTPISPDEEELGQRTAYHSKRDASTPLRS
modifications: also: biotin, site not given here

— publication PMC4250834 (Cell reports, 2014)
